We go through 83 variants from the RNAGym collection of RNA variant scans (doi:10.1093/molbev/msab373).

B1: Azoarcus group I ribozyme (parent)
chain: GUGCCUUGCGCCGGGAAACCACGCAAGGGAUGGUGUCAAAUUCGGCGAAACCUAAGCGCCCGCCCGGGCGUAUGGCAACGCCGAGCCAAGCUUCGGCGCCUGCGCCGAUGAAGGUGUAGAGACUAGACGGCACCCACCUAAGGCAAACGCUAUGGUGAAGGCAUAGUCCAGGGAGUGGCGAAAGUCACACAAACCGG

In this series the parent is B1. Description: reverse-splicing fitness (ratio to wild type); higher = more active; in vitro selection; Mg2+ level not given. An outline of the steps:
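An in vitro group I ribozyme library with randomized positions was T7-transcribed and gel-purified. In triplicate, 10 pmol RNA in EPPS pH 7.5 was reacted with 50 pmoles of a 30-nt RNA substrate for 1 h at 37 °C across several added MgCl2 levels (1–48 mM), then stopped with EDTA. Products were reverse transcribed from a substrate-complementary primer, PCR-amplified and sequenced (HiSeq 4000). Fitness is a variant's read proportion after selection over that before, normalised to wild type.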
For A111U A120G C150U U176C, the reverse-splicing fitness turned out to be 0.0413.

As for C82G A145C U176C, the reverse-splicing fitness came out at 0.35.

In the case of C82A A111G A120G C150U, the reverse-splicing fitness was found to be 0.0127.

Regarding C82U A111U A120G A145G C150G C169G U176C, the reverse-splicing fitness was 0.0107.

In the case of C82G A111U A145U U176C, the reverse-splicing fitness came out at 0.246.

C82A A111U A120G A145G C150A C169G U176G: the reverse-splicing fitness stood at 0.00589.

In the case of A111C A145U C150U C169U U176G, the reverse-splicing fitness amounted to 0.00764.

Consider A111C A120C A145G C150A U176G, for which the reverse-splicing fitness is 0.0143.

Consider A111C A145G C150U C169U, for which the reverse-splicing fitness was determined as 0.0877.

As for C82U A111G A120U C150A C169U, the reverse-splicing fitness was 0.00325.

For A111C A145C C169A, the reverse-splicing fitness is 0.0285.

For C82U A111U C150G C169U U176G, the reverse-splicing fitness is 0.00604.

Consider C82G A120U A145U C150U C169A, for which the reverse-splicing fitness was determined as 0.00259.

Take A111G A120G A145G C150A C169G: the reverse-splicing fitness was 0.0514.

C82A A111G A145C C150U C169U U176C: the reverse-splicing fitness was determined as 0.00981.

As for C82A A145U C169G U176C, the reverse-splicing fitness was 0.0127.

With C82A A111G A120C C150G C169A U176C, the reverse-splicing fitness worked out at 0.0139.

As for C82G A111G A120C A145U C169A U176G, the reverse-splicing fitness was 0.00508.

Take C82U A111U A120U A145G C150U U176A: the reverse-splicing fitness amounted to 0.00787.

C82A A111U A120U A145C C150A C169A U176A: the reverse-splicing fitness is 0.00272.

Take A120C A145U C169U U176A: the reverse-splicing fitness was 0.143.

In the case of C82U A111C A120C A145G C150G C169G, the reverse-splicing fitness worked out at 0.00708.

Consider C150G C169U U176G, for which the reverse-splicing fitness came to 0.00596.

For C82A A111C A120U A145G C169G U176G, the reverse-splicing fitness amounted to 0.00244.

In the case of C82G A111U A145U C150U U176G, the reverse-splicing fitness was found to be 0.043.

In the case of C82U A111U A120G A145C C150G C169A U176C, the reverse-splicing fitness was 0.006.

Regarding C82G A111C A120C A145U C150A C169U U176A, the reverse-splicing fitness was 0.0126.

As to C82U A111U A120U A145C C150G C169A, the reverse-splicing fitness was determined as 0.00266.

Turning to A111G A120C A145G C150A U176C, the reverse-splicing fitness came to 0.0998.

Take A111U A120G C169G U176A: the reverse-splicing fitness was 0.0412.

As to C82U A111G A120C C150U C169G U176A, the reverse-splicing fitness amounted to 0.0205.

C82G A111C A145U C150A U176G: the reverse-splicing fitness was 0.0105.

C82A A111C A120G A145C C150G C169U: the reverse-splicing fitness turned out to be 0.00668.

In the case of C82U A111U A120C A145G C150U C169A U176G, the reverse-splicing fitness worked out at 0.00576.

For the variant C82G A111U A120C A145U C150U C169G, the reverse-splicing fitness stood at 0.00939.

Turning to A111U A145G C169G, the reverse-splicing fitness was determined as 0.0699.

Take A111C A120G A145C C150G U176A: the reverse-splicing fitness was 0.0112.

As for C82G A111G A120U A145G C150U C169A U176C, the reverse-splicing fitness turned out to be 0.00519.

With C82A A111G A120G A145G C169U, the reverse-splicing fitness is 0.0111.

C82U A145G C150G C169G U176G: the reverse-splicing fitness is 0.00548.

For C82U A111G A120C A145G U176G, the reverse-splicing fitness came to 0.00519.

Regarding C82G A111C A145G C150A C169A U176C, the reverse-splicing fitness is 0.0204.

As to C82U A111C A120G C150A C169G U176A, the reverse-splicing fitness worked out at 0.0168.

On to C82A A145U U176G, for which the reverse-splicing fitness worked out at 0.157.

For C82G A145C C150G C169A U176G, the reverse-splicing fitness is 0.00487.

For C82A A120G A145G C150G C169A U176G, the reverse-splicing fitness is 0.00858.

Consider U176A, for which the reverse-splicing fitness was 0.87.

C82G A111C A120C A145C C150G C169G U176G: the reverse-splicing fitness was 0.00608.

A111C A145U C150A C169U U176G: the reverse-splicing fitness came out at 0.00751.

In the case of C82G A111C A145G U176G, the reverse-splicing fitness was found to be 0.0463.

Turning to A111G A120U A145G C169G U176A, the reverse-splicing fitness was 0.00934.

In the case of C82A A120C A145C C169U U176C, the reverse-splicing fitness stood at 0.0127.

For A120U C150G C169U U176G, the reverse-splicing fitness came to 0.00276.

For the variant A111U A120G A145U C150A U176A, the reverse-splicing fitness came to 0.0129.

On to C82G A111C A120G A145G C150G C169G U176A, for which the reverse-splicing fitness was found to be 0.0101.

With C82U A111G A120C A145C C150U C169U U176G, the reverse-splicing fitness came out at 0.00402.

In the case of C82A A120C A145G C169A U176A, the reverse-splicing fitness was 0.0242.

For the variant C82G A111U A120C A145C C150G C169U, the reverse-splicing fitness came out at 0.00834.

As to C82A A111C A120U A145U C150U C169A U176A, the reverse-splicing fitness is 0.00334.

Turning to C82A A111C A145G C150U C169U U176C, the reverse-splicing fitness stood at 0.0143.

Turning to C82G A111G A120G A145U C150G C169G U176G, the reverse-splicing fitness came out at 0.00457.

For C82A A111U A145G C169A U176A, the reverse-splicing fitness was 0.0221.

For C82G A111C A120U A145U C150U U176G, the reverse-splicing fitness came to 0.00386.

Turning to C82G A111G A120G A145U C150A U176C, the reverse-splicing fitness was 0.0191.

As for A111C A145C C150G C169G U176C, the reverse-splicing fitness is 0.00915.

As to C82U A111G A120C A145G C150G C169U U176G, the reverse-splicing fitness amounted to 0.0053.

With A111C A145U C150U C169A U176G, the reverse-splicing fitness came out at 0.00758.

Regarding A111U A120U C150G C169G, the reverse-splicing fitness turned out to be 0.00802.

Turning to C82G A145U C150U C169U U176C, the reverse-splicing fitness was 0.0121.

On to C82A A111U C150A C169G U176A, for which the reverse-splicing fitness worked out at 0.0202.

Take C82G A120G A145U C150G C169A: the reverse-splicing fitness was 0.0112.

With C82U A111G A120C C150A U176A, the reverse-splicing fitness worked out at 0.0127.

Regarding C82A A120G A145U C150G U176A, the reverse-splicing fitness worked out at 0.00629.

As to C82G A111C A120C A145C C150U C169A U176G, the reverse-splicing fitness was 0.00692.

Turning to C82A A111G A120U A145C C150G C169U U176A, the reverse-splicing fitness stood at 0.00268.

Consider C82U A111G A145C U176C, for which the reverse-splicing fitness is 0.242.

Consider C82U A111G A120G A145U C150G U176C, for which the reverse-splicing fitness came out at 0.00779.

Turning to C82A A111U A120G A145U C150A U176A, the reverse-splicing fitness came to 0.0128.

C82A A111C A120C A145G C150G C169G: the reverse-splicing fitness stood at 0.00793.

Consider A111U A120G A145U C150U C169G U176C, for which the reverse-splicing fitness came out at 0.0378.

In the case of C82A A120G A145G C150U U176G, the reverse-splicing fitness turned out to be 0.00667.

As for C82U A111C A145G C150G U176G, the reverse-splicing fitness came out at 0.00671.

For C82G A111G A120U C150G U176G, the reverse-splicing fitness amounted to 0.00299.
